Data on five molecules can be found in patent US20130317087A1 (UNIVERSITY OF ROCHESTER, published 2013).

Data set [1] has as its target T1, hSTAU1^55-HA3 (human, UniProt O95793-2 1-496).
T1 construct: also called STAU1-HA3
T1 sequence (looked up): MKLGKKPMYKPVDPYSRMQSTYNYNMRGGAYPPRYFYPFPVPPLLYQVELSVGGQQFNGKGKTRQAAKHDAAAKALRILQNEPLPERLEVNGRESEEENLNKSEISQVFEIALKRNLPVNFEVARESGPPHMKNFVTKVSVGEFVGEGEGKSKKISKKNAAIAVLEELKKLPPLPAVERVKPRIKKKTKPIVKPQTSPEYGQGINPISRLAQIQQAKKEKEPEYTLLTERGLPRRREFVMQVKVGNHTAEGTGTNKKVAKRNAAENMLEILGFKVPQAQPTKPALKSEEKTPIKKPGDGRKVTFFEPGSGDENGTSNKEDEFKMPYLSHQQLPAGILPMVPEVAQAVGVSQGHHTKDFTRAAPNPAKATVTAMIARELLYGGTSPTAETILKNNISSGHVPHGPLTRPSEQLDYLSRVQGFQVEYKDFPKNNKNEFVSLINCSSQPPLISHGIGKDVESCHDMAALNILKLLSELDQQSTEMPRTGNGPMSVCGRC
In words: anti-FLAG and anti-HA co-IP from HEK293T lysates with RNase A. The text has this: (§1) To test this idea, HEK293T cells were transiently transfected with hSTAU1⁵⁵-HA₃ and one of three siRNA-resistant (R) plasmids that produce either hSTAU1^{55(R)}-FLAG, hSTAU1^{55(R)}Δ(C-Term)-FLAG or hSTAU1^{55(R)}Δ(SSM-‘RBD’5)-FLAG, each of which was expressed at the level of cellular hSTAU 1. hSTAU1^{55(R)}Δ(C-Term)-FLAG lacks all amino acids C-terminal to ‘RBD’5 Δ1. Cell lysates were immunoprecipitated in the presence of RNaseA using anti-FLAG or, as a negative control, mIgG.

The target of data set [2] is T1, hSTAU1^55-HA3. In words: anti-FLAG co-IP from HEK293T lysates with RNase A, quantitated western blot.
Excerpt: as §1
(§2) The level of hSTAU1⁵⁵-HA₃ or cellular hUPF1 that co-immunoprecipitated with hSTAU1^{55(R)}Δ(SSM-‘RBD’5)—FLAG was only ˜10% the level of, respectively, hSTAU1⁵⁵-HA₃ or cellular hUPF1 that co-immunoprecipitated with hSTAU1^{55(R)}-FLAG or hSTAU1^{55(R)}Δ(C-Term)-FLAG.

The target in another data set is T2, cellular hUPF1 (human, UniProt Q92900-2 1-1118, limits assumed).
T2 construct: Endogenous protein detected by western blotting
T2 sequence (looked up): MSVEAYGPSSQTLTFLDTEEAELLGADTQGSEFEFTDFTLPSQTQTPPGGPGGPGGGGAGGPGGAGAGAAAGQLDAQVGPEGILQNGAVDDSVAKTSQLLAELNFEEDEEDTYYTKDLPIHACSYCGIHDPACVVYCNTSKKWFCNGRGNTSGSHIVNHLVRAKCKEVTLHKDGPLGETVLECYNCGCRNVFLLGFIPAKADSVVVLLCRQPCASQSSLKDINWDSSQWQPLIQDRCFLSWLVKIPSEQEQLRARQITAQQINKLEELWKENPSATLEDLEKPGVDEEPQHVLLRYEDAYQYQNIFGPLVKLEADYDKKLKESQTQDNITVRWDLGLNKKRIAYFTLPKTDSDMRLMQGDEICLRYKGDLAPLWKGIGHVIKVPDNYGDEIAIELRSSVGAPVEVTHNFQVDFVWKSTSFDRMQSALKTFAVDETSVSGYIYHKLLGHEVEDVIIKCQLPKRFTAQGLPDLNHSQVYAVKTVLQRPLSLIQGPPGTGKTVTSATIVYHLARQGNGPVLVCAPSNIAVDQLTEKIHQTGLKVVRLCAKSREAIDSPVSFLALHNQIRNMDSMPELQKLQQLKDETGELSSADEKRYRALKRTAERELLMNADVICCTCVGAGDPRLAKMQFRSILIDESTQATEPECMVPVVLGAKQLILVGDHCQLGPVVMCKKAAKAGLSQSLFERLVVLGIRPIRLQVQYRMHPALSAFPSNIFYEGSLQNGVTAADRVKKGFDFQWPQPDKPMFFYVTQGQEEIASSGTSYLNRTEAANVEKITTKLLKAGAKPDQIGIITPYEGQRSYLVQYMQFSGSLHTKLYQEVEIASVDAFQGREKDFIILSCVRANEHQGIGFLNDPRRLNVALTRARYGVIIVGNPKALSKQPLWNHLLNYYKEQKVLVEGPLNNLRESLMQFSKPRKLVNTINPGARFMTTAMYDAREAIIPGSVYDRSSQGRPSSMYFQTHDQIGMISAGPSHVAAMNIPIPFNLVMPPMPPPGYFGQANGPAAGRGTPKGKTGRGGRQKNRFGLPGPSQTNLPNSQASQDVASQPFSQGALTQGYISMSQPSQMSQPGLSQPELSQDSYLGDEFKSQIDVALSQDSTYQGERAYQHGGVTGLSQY
Described as above.
Excerpt: as §1, §2

In data set [3] the target is T1, hSTAU1^55-HA3. Nature of the data set: anti-HA co-IP (reverse direction) from HEK293T lysates, quantitated western blot.
Excerpt: To test this idea, HEK293T cells were transiently transfected with hSTAU1⁵⁵-HA₃ and one of three siRNA-resistant (R) plasmids that produce either hSTAU1^{55(R)}-FLAG, hSTAU1^{55(R)}Δ(C-Term)-FLAG or hSTAU1^{55(R)}Δ(SSM-‘RBD’5)-FLAG, each of which was expressed at the level of cellular hSTAU 1. hSTAU1^{55(R)}Δ(C-Term)-FLAG lacks all amino acids C-terminal to ‘RBD’5 Δ1. […]
as §2

Data set [4] concerns the molecule itself. Nature of the data set: sedimentation velocity analytical ultracentrifugation, rapid monomer-dimer equilibrium model. The method, then:
After purifying GST-hSTAU1⁵⁵(367-476) from E. coli and removing the GST tag, SSM-‘RBD’5 migrated during gel filtration at the size of a dimer Sedimentation velocity determinations using analytical ultracentrifugation confirmed that the average weight distribution of SSM-‘RBD’5 shifted to lower Svedberg values at lower concentrations (FIG. 10C).
hSTAU1-SSM-‘RBD’5 was purified as above, except the final GF buffer contained 2.97 mM DTT, and submitted to the University of Connecticut Analytical Ultracentrifugation Facility for sedimentation velocity analysis. […] Measuring refractive index rather than absorbance was especially useful considering the low extinction coefficient at A₂₈₀ that typifies SSM-‘RBD’5; which lacks tryptophan residues. […] Data were analyzed using: 1) DcDt+, version 2.0.9 (Philo, 2000; 2006), to determine the sedimentation coefficient distribution that was independent of a model, 2) Sedfit, version 10.09beta (Schuck, 2000), to produce a model-based continuous sedimentation coefficient distribution using the Lamm equation or c(s) to identify the number of species (e.g., monomers vs dimers) in solution, and 3) Sedanal, version 5.60 to combine datasets from the three highest of four concentrations tested, perform a global analysis, and determine the protein association model using the Lamm equation.

Data set [5] deals with the molecule itself. Nature of the data set: gel filtration of the E. coli-made protein. The procedure:
Since hSTAU1^{55(R)}Δ(SSM-‘RBD’5)-FLAG still had residual dimerization activity (10% that of hSTAU1^{55(R)}-FLAG), and in view of reports that hSTAU1 ‘RBD’2 amino acids 37-79 can interact with full-length hSTAU1, the ability of E. coli-produced ‘RBD’2-RBD3 amino acids 43-173 to dimerize was assayed.
Size standards were prepared by dissolving dried proteins in 2 ml of GF buffer containing 2.97 mM DTT. Proteins consisted of 3.8 mg of conalbumin (75 kDa), 2.3 mg carbonic anhydrase (29 kDa) and 6.7 mg aprotinin(6.5 kDa), each from the Low Molecular Weight Gel Filtration Calibration Kit (GE Healthcare; #28-4038-41), and 6 mg of lysozyme (14.3 kDa) (Sigma; #L6876-10G). The dissolved solution (1 ml, determined using a 1 ml loop) was loaded onto a 120 ml HiLoad™Superdex™ 200 16/60 prep-grade column (GE Healthcare) and separated at a 1 ml/min flow rate using the BioLogicDuoFlow™ FPLC system. For size estimations, gel-filtration of SSM-‘RBD’5 (WT), SSM-‘RBD’5 (E424H, D427V) and ‘RBD’2-RBD3 was performed as described for the size standards. SSM-‘RBD’5 (WT) was loaded at 8 mg/ml, SSM-‘RBD’5 (E424H, D427V) was loaded, and ‘RBD’2-RBD3 was loaded at 6 mg/ml.

B1: hSTAU1^55(R)Δ(C-Term)-FLAG (other, human, UniProt O95793-2 1-422, looked up, not shown: small tags and cut ends)
chain: MKLGKKPMYKPVDPYSRMQSTYNYNMRGGAYPPRYFYPFPVPPLLYQVELSVGGQQFNGKGKTRQAAKHDAAAKALRILQNEPLPERLEVNGRESEEENLNKSEISQVFEIALKRNLPVNFEVARESGPPHMKNFVTKVSVGEFVGEGEGKSKKISKKNAAIAVLEELKKLPPLPAVERVKPRIKKKTKPIVKPQTSPEYGQGINPISRLAQIQQAKKEKEPEYTLLTERGLPRRREFVMQVKVGNHTAEGTGTNKKVAKRNAAENMLEILGFKVPQAQPTKPALKSEEKTPIKKPGDGRKVTFFEPGSGDENGTSNKEDEFKMPYLSHQQLPAGILPMVPEVAQAVGVSQGHHTKDFTRAAPNPAKATVTAMIARELLYGGTSPTAETILKNNISSGHVPHGPLTRPSEQLDYLSRVQGFQ
notes: domain: lacks all amino acids C-terminal to ‘RBD’5 α1; End at residue 422 is read from the primer; also called product of pcI-neo-hSTAU1^55(R)Δ(C-Term)-FLAG
For B1, the binding result in the data set with hSTAU1^55-HA3 [1] is listed as “binds”.

B2: hSTAU1^55(R)Δ(SSM-‘RBD’5)-FLAG (other, human, UniProt O95793-2 1-363, looked up, not shown: small tags and cut ends)
chain: MKLGKKPMYKPVDPYSRMQSTYNYNMRGGAYPPRYFYPFPVPPLLYQVELSVGGQQFNGKGKTRQAAKHDAAAKALRILQNEPLPERLEVNGRESEEENLNKSEISQVFEIALKRNLPVNFEVARESGPPHMKNFVTKVSVGEFVGEGEGKSKKISKKNAAIAVLEELKKLPPLPAVERVKPRIKKKTKPIVKPQTSPEYGQGINPISRLAQIQQAKKEKEPEYTLLTERGLPRRREFVMQVKVGNHTAEGTGTNKKVAKRNAAENMLEILGFKVPQAQPTKPALKSEEKTPIKKPGDGRKVTFFEPGSGDENGTSNKEDEFKMPYLSHQQLPAGILPMVPEVAQAVGVSQGHHTKDFTRAAP
notes: domain: Δ(SSM-‘RBD’5); End at residue 363 is read from the primer; also called product of pcI-neo-hSTAU1^55(R)Δ(SSM-‘RBD’5)-FLAG
In the case of B2, the “level of co-immunoprecipitated hSTAU1^55-HA3 relative to that with hSTAU1^55(R)-FLAG or hSTAU1^55(R)Δ(C-Term)-FLAG” value with hSTAU1^55-HA3 [2] is roughly 10%. The “level of co-immunoprecipitated cellular hUPF1 relative to that with hSTAU1^55(R)-FLAG or hSTAU1^55(R)Δ(C-Term)-FLAG” value with cellular hUPF1 is roughly 10%. Besides, the “level co-immunoprecipitated with hSTAU1^55-HA relative to hSTAU1^55(R)-FLAG or hSTAU1^55(R)Δ(C-Term)-FLAG” value in the data set with hSTAU1^55-HA3 [3] was roughly 10%.

B3: hSTAU1^55(R)-FLAG (other, human, UniProt O95793-2 1-496, looked up, not shown: small tags and cut ends)
chain: MKLGKKPMYKPVDPYSRMQSTYNYNMRGGAYPPRYFYPFPVPPLLYQVELSVGGQQFNGKGKTRQAAKHDAAAKALRILQNEPLPERLEVNGRESEEENLNKSEISQVFEIALKRNLPVNFEVARESGPPHMKNFVTKVSVGEFVGEGEGKSKKISKKNAAIAVLEELKKLPPLPAVERVKPRIKKKTKPIVKPQTSPEYGQGINPISRLAQIQQAKKEKEPEYTLLTERGLPRRREFVMQVKVGNHTAEGTGTNKKVAKRNAAENMLEILGFKVPQAQPTKPALKSEEKTPIKKPGDGRKVTFFEPGSGDENGTSNKEDEFKMPYLSHQQLPAGILPMVPEVAQAVGVSQGHHTKDFTRAAPNPAKATVTAMIARELLYGGTSPTAETILKNNISSGHVPHGPLTRPSEQLDYLSRVQGFQVEYKDFPKNNKNEFVSLINCSSQPPLISHGIGKDVESCHDMAALNILKLLSELDQQSTEMPRTGNGPMSVCGRC
notes: Expressed in HEK293T cells at the level of cellular hSTAU1; also called product of pcI-neo-hSTAU1^55(R)-FLAG
Regarding B3, in the data set with hSTAU1^55-HA3 [1], the binding result was “binds”.

B4: hSTAU1 SSM-‘RBD’5 (hSTAU1^55 amino acids 367-476, GST tag removed) (other)
chain: GPLGSKATVTAMIARELLYGGTSPTAETILKNNISSGHVPHGPLTRPSEQLDYLSRVQGFQVEYKDFPKNNKNEFVSLINCSSQPPLISHGIGKDVESCHDMAALNILKLLSELD
notes: Made in E. coli as a GST fusion from pGEX-6p-1, GST cleaved off; In monomer-dimer equilibrium; also called SSM-‘RBD’5(WT); hSTAU1^55(367-476)
In turn, B4 displayed a Kd in data set [4] of 79 µM.

B5: hSTAU1 ‘RBD’2-RBD3 (amino acids 43-173) (other, human, UniProt O95793-2 43-173, looked up)
chain: PLLYQVELSVGGQQFNGKGKTRQAAKHDAAAKALRILQNEPLPERLEVNGRESEEENLNKSEISQVFEIALKRNLPVNFEVARESGPPHMKNFVTKVSVGEFVGEGEGKSKKISKKNAAIAVLEELKKLPP
notes: range 43-173; Made in E. coli from pGEX-6p-1 and cut with PreScission Protease; also called product of pGEX-6p-1-hSTAU1-‘RBD’2-RBD3
B5: the binding result in data set [5] is “binds”.
